Earlier results on 2 molecules are cited in patent publication US20040115213A1, “Use of IL-2 receptor antibodies” (priority 2002, published 2004).

The conditions of data set [1]: patients given amphotericin-B.
The conditions of data set [2]: human patients.
The conditions of data set [3]: monkeys; Hakimi et al.

Regarding `CC1OC(O[C@H]2/C=C/C=C/C=C/C=C/C=C/C=C/C=C/[C@H](C)[C@@H](O)[C@@H](C)[C@H](C)OC(=O)C[C@H](O)C[C@H](O)CC[C@@H](O)[C@H](O)C[C@H](O)C[C@]3(O)C[C@H](O)C(C(=O)O)[C@H](C2)O3)C(O)C(N)C1O` (stereo partly drawn) [amphotericin-B, [1R-(1 R *,3 S *, 5 R *, 6 R *,9 R *,11 R *,15 S *,16 R *,17 R *,18 S *, 19 E,21 E, 23 E,25 E, 27 E,29 E,31 E,33 R *,35 S *,36 R *,37 S *)]-33-[(3-Amino-3,6-dideoxy-(beta)-D-mannopyranosyl)oxy]-1,3,5,6,9,11,17,37-octahydroxy-15,16,18-trimethyl-13-oxo-14,39-dioxabi-cyclo[33.3.1]nonatriaconta-19,21,23,25,27,29,31-heptaene-36-carboxylic acid], the “patients experiencing some degree of nephrotoxicity” value in data set [1] is reported as “Over 80%”.

“humanized anti-Tac: humanized monoclonal antibody that binds to the p55 subunit of the human IL-2 receptor, described in U.S. Pat. No. 5,530,101”: the “immunogenicity (HAMA response)” value in data set [2] was “(essentially) non-immunogenic”. In addition, the “immunogenicity relative to mouse antibody” value in data set [3] is “reduced immunogenicity relative to mouse anti-Tac”.
